We go through three sequences from the supplement of paper PMC11246515.

This data set in a line: total protein half-life in vivo (active degradation + dilution); higher = more stable protein.
[1] abbreviates: E. coli NCM3722 delta-clpP delta-lon delta-hslV, growth: N-lim chemostat, doubling time 6 h.
[2] abbreviates: E. coli NCM3722 delta-clpP, growth: N-lim chemostat, doubling time 6 h.
[3] abbreviates: E. coli NCM3722 delta-hslV, growth: N-lim chemostat, doubling time 6 h.
Where [4] appears, read: E. coli NCM3722 delta-lon, growth: N-lim chemostat, doubling time 6 h.
Where [5] appears, read: E. coli NCM3722 delta-smpB, growth: N-lim chemostat, doubling time 6 h.
The mark [6] stands for this setting: wild type E. coli NCM3722, growth: C-lim chemostat, doubling time 3 h.
[7] abbreviates: wild type E. coli NCM3722, growth: C-lim chemostat, doubling time 6 h.
[8] abbreviates: wild type E. coli NCM3722, growth: C-lim chemostat, doubling time 12 h.
Setting [9] is: wild type E. coli NCM3722, growth: N-lim chemostat, doubling time 6 h.
Where [10] appears, read: wild type E. coli NCM3722, growth: N-lim chemostat, doubling time 12 h.
Where [11] appears, read: wild type E. coli NCM3722, growth: P-lim chemostat, doubling time 6 h.
Where [12] appears, read: wild type E. coli NCM3722, growth: P-lim chemostat, doubling time 12 h.

± gives the standard deviation of the averaged measurements.

Take “MNVNFFVTCIGDALKSRMARDSVLLLEKLGCRVNFPEKQGCCGQPAINSGYIKEAIPGMKNLIAALEDNDDPIISPAGSCTYAVKSYPTYLADEPEWASRAAKVAARMQDLTSFIVNKLGVVDVGASLQGRAVYHPSCSLARKLGVKDEPLTLLKNVRGLELLTFAEQDTCCGFGGTFSVKMAEISGEMVKEKVAHLMEVRPEYLIGADVSCLLNISGRLQREGQKVKVMHIAEVLMSR”: the “total protein half-life in vivo” value is, setting by setting: under setting [1], 4.88 ± 0.35 h; under setting [2], 2.8 h; under setting [3], 3.22 ± 0.43 h; under setting [4], 4.91 h; under setting [5], 3.17 ± 0.06 h; under setting [6], 3.05 ± 0.46 h. Besides, the “total protein half-life in vivo” value was 4.67 ± 0.46 h under setting [7]; 8.01 ± 0.23 h under setting [8]; 4.38 ± 0.39 h under setting [9]; 6.19 ± 1.3 h under setting [10]; 4.49 h under setting [11]; 8.05 ± 0.092 h under setting [12].

Regarding “MTVAYIAIGSNLASPLEQVNAALKALGDIPESHILTVSSFYRTPPLGPQDQPDYLNAAVALETSLAPEELLNHTQRIELQQGRVRKAERWGPRTLDLDIMLFGNEVINTERLTVPHYDMKNRGFMLWPLFEIAPELVFPDGEMLRQILHTRAFDKLNKW”, the “total protein half-life in vivo” value was determined as 4.02 h under setting [2]; 4.41 h under setting [3]; 4.82 h under setting [4]; 3.22 ± 0.3 h under setting [6]; 10.3 h under setting [8]; 3.76 h under setting [9]. Also, the “total protein half-life in vivo” value reads like this: under setting [11], 5.3 h; under setting [12], 10.7 h.

Turning to “MPGKIAVEVAYALPEKQYLQRVTLQEGATVEEAIRASGLLELRTDIDLTKNKVGIYSRPAKLSDSVHDGDRVEIYRPLIADPKELRRQRAEKSANK”, the “total protein half-life in vivo” value came to 5.54 ± 0.24 h under setting [1]; 5.02 ± 0.35 h under setting [2]; 3.33 h under setting [3]; 4.06 h under setting [4]; 2.89 ± 0.05 h under setting [5]; 2.87 h under setting [6]. Also, the “total protein half-life in vivo” value by setting is: under setting [7], 5.02 ± 0.71 h; under setting [8], 6.3 ± 3.5 h; under setting [9], 3.34 ± 0.09 h; under setting [10], 5.54 h; under setting [11], 5.31 h; under setting [12], 8.44 ± 1 h.
